Assay results published in paper doi:10.1101/2022.12.06.519310 (bioRxiv, 2022).
Ends that are not written are not given here. * marks the point of attachment. NHCH2CH2(5-OH-indol-3-yl) = Oc1ccc2[nH]cc(CCN*)c2c1

Target: full length recombinant WDR5 (human, UniProt P61964 1-334)
Experiment: pull-down

| binding result | Binder |
| --- | --- |
| binds | ARTKQ(NHCH2CH2(5-OH-indol-3-yl))TARKS (also: biotinylated, position not given here) [biotinylated H3 (1-10) Q5ser peptide] |
| binds | ARTKQTARKS (also: biotinylated, position not given here) [biotinylated H3 (1-10) unmodified peptide] |
